Measured values from patent US20120121589A1, “MODIFIED EGFR ECTODOMAIN” (WAYNE STATE UNIVERSITY, priority 2009, published 2012).
“Also recorded” adds a separate entry of the source. *: point of attachment. Cbz = O=C(OCc1ccccc1)*; CH2F = FC*

Assays:
MDA-MB-231 cells = test: MTT growth assay and CalcuSyn synergy analysis in MDA-MB-231 cells; format: cell-based, human
Protocol: (§1) Growth inhibition assay included the following aspects. […] At the end of the treatment period, cells were incubated with 10% of 5 mg/mL stock of MTT and incubated for 3 hours at 37° C.
(§2) Analysis of interaction between two drugs included the following aspects. Combination index (CI) method adapted for in vitro anticancer drug testing was used to determine the nature of interaction between the two agents as described by Majumdar APN, Banerjee S, Nautiyal J, et al. Curcumin synergizes with resveratrol to inhibit colon cancer. […] Based on CI values, the extent of synergism/antagonism may be determined.

MDA-MB-468 xenografts = MDA-MB-468 xenografts in SCID mice, tumor growth; format: in vivo
Protocol: Severe combined immunodeficient mice xenografts of MDA-MB-468 cells included the following aspects. […] When tumor burden reached 1,500 to 2,000 mg, mice were euthanized. The tumors were removed, cut into 20 to 30 mg fragment, and subsequently transplanted (s.c.) bilaterally into similarly conditioned 28 animals. […] Treatment was started on day 7 and continued until day 23. Animals and tumor burden were followed for up to 55 days. Tumor measurements were carried out at multiple time points during the experimental period. Mice were weighed and monitored for signs of toxicity. Tumor weights in SCID mice were estimated as tumor weight (mg)=(A×B2)/2, where A and B are the tumor length and width (in mm), respectively.

MDA-MB-468 cells [1] = test: MTT growth assay and CalcuSyn synergy analysis in MDA-MB-468 cells; format: cell-based, human; settings: for Dasatinib (Fa): MDA-MB-468
Protocol: as §1, §2

MDA-MB-468 cells [2] = test: Apoptosis in MDA-MB-468 cells (DNA fragmentation ELISA, acridine orange staining); settings: MDA-MB-468 cells preincubated with inhibitor for 3 hours, then EBIP and dasatinib; FIG. 15B
HER-2 = target: T1, HER-2 (Homo sapiens, UniProt P04626); test: Heregulin-induced phosphorylation of HER-2 in MDA-MB-453 cells; format: cell-based; settings: preincubation, then heregulin, FIG. 8, FIG. 19
T1 construct: endogenous in cells; host or cells: MDA-MB-453
Description: (§3) The breast cancer MDA-MB-453 cells contain high levels of HER-2 and HER-3. […] Binding of heregulin HER-3 leads to activation and subsequent heterodimerization of HER-3 with one or more EGFR family members.
(§4) Western blot analysis included the following aspects.

[3] = tested on: colon cancer HCT-116 cells; test: MTT growth assay in colon cancer HCT-116 cells; format: cell-based
Protocol: as §1

[4] = tested on: Erks (extracellular signal-regulated kinases); test: TGF-α-induced phosphorylation of ERKs in HCT-116 cells (Western blot); format: cell-based; settings: prior exposure, FIG. 6
EGFR = target: T2, EGFR (Homo sapiens, UniProt P00533); test: TGF-α-induced tyrosine phosphorylation of EGFR (Western blot); format: cell-based; settings: preincubation 10 μg/ml for 30 min; 10 nM TGF-α for 10 min; FIG. 4
T2 construct: endogenous in cells

[5] = tested on: breast cancer SKBR-3 cells; test: MTT growth assay in breast cancer SKBR-3 cells; format: cell-based, human; settings: increasing concentrations, 48 h; FIG. 7
Protocol: as §1

HER-3 = target: T3, HER-3 (Homo sapiens, UniProt P21860); test: Heregulin-induced phosphorylation of HER-3 in MDA-MB-453 cells; format: cell-based; settings: preincubation, then heregulin, FIG. 8, FIG. 19
T3 construct: endogenous in cells; host or cells: MDA-MB-453
Description: as §3, §4

c-Src = test: TGF-α-induced phosphorylation of Src in HCT-116 cells (Western blot); format: cell-based; settings: prior exposure, FIG. 5
[6] = tested on: breast cancer SKBR cell xenografts; test: SKBR cell xenografts in SCID mice; format: in vivo; settings: FIG. 9
Description: SKBR cells express high levels of HER-2 but contain little no HER-1/EGFR or HER-3.

T3 sequence (P21860 20-1342): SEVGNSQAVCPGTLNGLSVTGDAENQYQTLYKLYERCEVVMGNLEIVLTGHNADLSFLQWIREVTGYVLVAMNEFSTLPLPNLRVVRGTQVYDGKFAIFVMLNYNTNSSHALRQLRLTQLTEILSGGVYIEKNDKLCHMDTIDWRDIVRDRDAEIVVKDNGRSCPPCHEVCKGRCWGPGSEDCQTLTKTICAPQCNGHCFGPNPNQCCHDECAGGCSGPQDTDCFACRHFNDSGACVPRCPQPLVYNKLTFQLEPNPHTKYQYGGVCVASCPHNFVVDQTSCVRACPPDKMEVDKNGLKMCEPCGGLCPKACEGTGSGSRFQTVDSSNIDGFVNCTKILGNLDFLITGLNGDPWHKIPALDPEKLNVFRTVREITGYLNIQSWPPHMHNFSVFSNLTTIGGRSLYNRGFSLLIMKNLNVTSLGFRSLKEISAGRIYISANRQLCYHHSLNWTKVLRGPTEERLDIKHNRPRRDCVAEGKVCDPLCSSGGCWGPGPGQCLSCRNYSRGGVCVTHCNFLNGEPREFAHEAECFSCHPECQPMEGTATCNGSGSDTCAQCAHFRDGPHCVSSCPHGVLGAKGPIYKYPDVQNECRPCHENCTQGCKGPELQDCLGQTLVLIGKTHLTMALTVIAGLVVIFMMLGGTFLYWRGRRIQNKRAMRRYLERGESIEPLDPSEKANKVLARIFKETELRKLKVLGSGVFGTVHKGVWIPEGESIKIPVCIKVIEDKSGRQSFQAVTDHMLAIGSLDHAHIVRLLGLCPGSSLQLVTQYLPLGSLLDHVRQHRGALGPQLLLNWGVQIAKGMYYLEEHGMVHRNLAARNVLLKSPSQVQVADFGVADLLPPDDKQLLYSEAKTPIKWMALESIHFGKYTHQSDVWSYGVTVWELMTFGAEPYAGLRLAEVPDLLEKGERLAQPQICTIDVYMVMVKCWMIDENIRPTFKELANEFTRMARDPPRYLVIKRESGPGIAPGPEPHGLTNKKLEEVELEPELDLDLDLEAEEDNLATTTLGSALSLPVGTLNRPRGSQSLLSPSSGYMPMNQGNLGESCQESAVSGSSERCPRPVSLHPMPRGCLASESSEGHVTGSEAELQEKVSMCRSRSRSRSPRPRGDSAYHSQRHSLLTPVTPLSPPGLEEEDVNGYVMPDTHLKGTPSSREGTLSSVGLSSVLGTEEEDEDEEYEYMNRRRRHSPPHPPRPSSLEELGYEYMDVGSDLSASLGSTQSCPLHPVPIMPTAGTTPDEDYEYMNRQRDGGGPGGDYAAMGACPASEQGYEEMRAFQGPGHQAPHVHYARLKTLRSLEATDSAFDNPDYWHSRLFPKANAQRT

With Cc1nc(Nc2ncc(C(=O)Nc3c(C)cccc3Cl)s2)cc(N2CCN(CCO)CC2)n1 [Dasatinib, dasatinib] the “Dasatinib (Fa)” value (MDA-MB-231 cells; Dasatinib 0.50 μM) was 0.354, the “Dasatinib (Fa)” value (MDA-MB-231 cells; Dasatinib 1.0 μM) was 0.322 and the “Dasatinib (Fa)” value (MDA-MB-231 cells; Dasatinib 2.0 μM) was 0.353. The “Dasatinib (Fa)” value (MDA-MB-231 cells; Dasatinib 4.0 μM) was 0.392, the “tumor growth, significance of inhibition” value (MDA-MB-468 xenografts; P<0.05, FIG. 16, Table 3) was “no significant inhibition” and the “tumor weight at the end of 55 days, Mean ± SD” value (MDA-MB-468 xenografts; day-55, dasatinib 10 mg/kg gavage and/or EBIP 25 μg/mouse s.c., every other day, day 7 to 23) was 584 ± 189 mg. The “inhibition (suppression) of tumor growth” value (MDA-MB-468 xenografts; vs vehicle-treated controls, dasatinib 10 mg/kg gavage and/or EBIP 25 μg/mouse s.c., every other day) was “about 27%”, the “Dasatinib (Fa)” value (MDA-MB-468 cells [1]; Dasatinib 0.50 μM) was 0.216 and the “Dasatinib (Fa)” value (MDA-MB-468 cells [1]; Dasatinib 1.0 μM) was 0.286. The “Dasatinib (Fa)” value (MDA-MB-468 cells [1]; Dasatinib 2.0 μM) was 0.315 and the “Dasatinib (Fa)” value (MDA-MB-468 cells [1]; Dasatinib 4.0 μM) was 0.382.

In the case of Cbz-IETD-CH2F, the “effect of caspase inhibitor on apoptosis induction by the combined therapy” value (MDA-MB-468 cells [2]) is reported as “blocked apoptosis induction by the combined therapy”.

Cbz-LEHD-CH2F was tested, and the “effect of caspase inhibitor on apoptosis induction by the combined therapy” value (MDA-MB-468 cells [2]) was “blocked apoptosis induction by the combined therapy”.

B1: rEGFR-447: rat ERRP that includes amino acids 1-447 but lacks the U region (SEQ ID NO: 15) (protein, listed as Rattus norvegicus)
chain: MRPSGTARTTLLVLLTALCAAGGALEEKKVCQGTSNRLTQLGTFEDHFLSLQRMYNNCEVVLGNLEITYVQRNYDLSFLKTIQEVAGYFLIALNTVERIPSEDLQIIRGNALYENTYALAILSNYGTNRTGLRELPMRNLQEILIGAVRFSNNPILCNMDTIQWRDIVQNVFMSNMSMDLQSHPSSCPKCDPSCPNGSCWGGGEENCQKLTKIICAQQCSHRCRGRSPSDCCHNQCAAGCTGPQKSDCLVCQKFQDEATCKDTCPPLMLYNPTTYQMDVNPEGKYSFGATCVKNCPRNYVVTDHGSCVRACGPDYYEVEEDGIRKCKKCDGPCRKVCNGIGIGEFKDTLSINATNIKHFKYCTAISGDLHILPVAFKGDSFTRTPPLDPRELEILKTVKEITGSLLIQAWPENWTDLHAFENLEIIRGRTKQHGQFSLAVVGLNITS
B1 was tested, and the “inhibition of heregulin-induced phosphorylation/activation of HER-2” value (HER-2) was “neither rEGFR-447 nor hEGFR-501 is effective; also recorded: neither rEGFR-447 nor hEGFR-501 re effective”, the “inhibition of growth (MTT)” value ([3]; increasing doses, FIG. 3) was “only marginally effective” and the “attenuation of TGF-α-induced phosphorylation of Erks” value [4] was “not”. For the same molecule, the “attenuation of TGF-α-induced tyrosine phosphorylation of EGFR (amino acid 845)” value (EGFR) was “do not attenuate”, the “inhibition of growth of SKBR-3 cells” value [5] was “neither rEGFR-447 nor hEGFR-501 caused any apparent change in the growth” and the “inhibition of heregulin-induced phosphorylation/activation of HER-3” value (HER-3) was “neither rEGFR-447 nor hEGFR-501 is effective; also recorded: neither rEGFR-447 nor hEGFR-501 re effective”. For the same molecule, the “attenuation of TGF-α-induced phosphorylation of Tyr416 of c-Src” value (c-Src) was “less attenuation”.

B2: ERRP: rat ERRP that includes amino acids 1-478 and includes the U region (SEQ ID NO: 16); pan-erbB inhibitor (protein, listed as Rattus norvegicus)
chain: MRPSGTARTTLLVLLTALCAAGGALEEKKVCQGTSNRLTQLGTFEDHFLSLQRMYNNCEVVLGNLEITYVQRNYDLSFLKTIQEVAGYFLIALNTVERIPSEDLQIIRGNALYENTYALAILSNYGTNRTGLRELPMRNLQEILIGAVRFSNNPILCNMDTIQWRDIVQNVFMSNMSMDLQSHPSSCPKCDPSCPNGSCWGGGEENCQKLTKIICAQQCSHRCRGRSPSDCCHNQCAAGCTGPQKSDCLVCQKFQDEATCKDTCPPLMLYNPTTYQMDVNPEGKYSFGATCVKNCPRNYVVTDHGSCVRACGPDYYEVEEDGIRKCKKCDGPCRKVCNGIGIGEFKDTLSINATNIKHFKYCTAISGDLHILPVAFKGDSFTRTPPLDPRELEILKTVKEITGSLLIQAWPENWTDLHAFENLEIIRGRTKQHGQFSLAVVGLNITSLPWQVPSLSWQAVTRPLHPLAQNRVSWDTGP
With B2 the “inhibition of heregulin-induced phosphorylation/activation of HER-2” value (HER-2) was “able to inhibit; also recorded: about as equally effective as EBIP”, the inhibition of growth ([3]; dose of 20 μg/mL, vs corresponding controls, FIG. 18) was 70% and the “tumor growth of SKBR xenografts” value ([6]; SCID mice, vs vehicle) was “noticeably decreased”. The “inhibition of tumor growth” value ([6]; intratumoral 50 μg once a day, day 13 to 26, end of 40 day period, vs controls) was “over 50%”, the “attenuation of TGF-α-induced phosphorylation of Erks” value [4] was “greatly attenuated” and the “attenuation of TGF-α-induced tyrosine phosphorylation of EGFR (amino acid 845)” value (EGFR) was “greatly abrogates this stimulation”. The “inhibition of growth of SKBR-3 cells” value [5] was “markedly inhibit the growth in a dose-dependent manner”, the “inhibition of heregulin-induced phosphorylation/activation of HER-3” value (HER-3) was “able to inhibit; also recorded: about as equally effective as EBIP” and the “inhibition of growth of MDA-MB-468 cells” value (MDA-MB-468 cells [1]; immunoaffinity-purified protein, FIG. 12D) was “equally effective”. For the same molecule, the “attenuation of TGF-α-induced phosphorylation of Tyr416 of c-Src” value (c-Src) was “abrogated”.
